Data as given in US20100167314A1 (JAPAN SCIENCE AND TECHNOLOGY AGENCY, published 2010).

T1: myc-tagged CPSF160 subunit of mouse CPSF (mouse, UniProt Q9EPU4 1-1441, limits assumed)
T1 construct: Co-expressed with IRBIT in COS cells; not shown: myc tag
T1 sequence (looked up): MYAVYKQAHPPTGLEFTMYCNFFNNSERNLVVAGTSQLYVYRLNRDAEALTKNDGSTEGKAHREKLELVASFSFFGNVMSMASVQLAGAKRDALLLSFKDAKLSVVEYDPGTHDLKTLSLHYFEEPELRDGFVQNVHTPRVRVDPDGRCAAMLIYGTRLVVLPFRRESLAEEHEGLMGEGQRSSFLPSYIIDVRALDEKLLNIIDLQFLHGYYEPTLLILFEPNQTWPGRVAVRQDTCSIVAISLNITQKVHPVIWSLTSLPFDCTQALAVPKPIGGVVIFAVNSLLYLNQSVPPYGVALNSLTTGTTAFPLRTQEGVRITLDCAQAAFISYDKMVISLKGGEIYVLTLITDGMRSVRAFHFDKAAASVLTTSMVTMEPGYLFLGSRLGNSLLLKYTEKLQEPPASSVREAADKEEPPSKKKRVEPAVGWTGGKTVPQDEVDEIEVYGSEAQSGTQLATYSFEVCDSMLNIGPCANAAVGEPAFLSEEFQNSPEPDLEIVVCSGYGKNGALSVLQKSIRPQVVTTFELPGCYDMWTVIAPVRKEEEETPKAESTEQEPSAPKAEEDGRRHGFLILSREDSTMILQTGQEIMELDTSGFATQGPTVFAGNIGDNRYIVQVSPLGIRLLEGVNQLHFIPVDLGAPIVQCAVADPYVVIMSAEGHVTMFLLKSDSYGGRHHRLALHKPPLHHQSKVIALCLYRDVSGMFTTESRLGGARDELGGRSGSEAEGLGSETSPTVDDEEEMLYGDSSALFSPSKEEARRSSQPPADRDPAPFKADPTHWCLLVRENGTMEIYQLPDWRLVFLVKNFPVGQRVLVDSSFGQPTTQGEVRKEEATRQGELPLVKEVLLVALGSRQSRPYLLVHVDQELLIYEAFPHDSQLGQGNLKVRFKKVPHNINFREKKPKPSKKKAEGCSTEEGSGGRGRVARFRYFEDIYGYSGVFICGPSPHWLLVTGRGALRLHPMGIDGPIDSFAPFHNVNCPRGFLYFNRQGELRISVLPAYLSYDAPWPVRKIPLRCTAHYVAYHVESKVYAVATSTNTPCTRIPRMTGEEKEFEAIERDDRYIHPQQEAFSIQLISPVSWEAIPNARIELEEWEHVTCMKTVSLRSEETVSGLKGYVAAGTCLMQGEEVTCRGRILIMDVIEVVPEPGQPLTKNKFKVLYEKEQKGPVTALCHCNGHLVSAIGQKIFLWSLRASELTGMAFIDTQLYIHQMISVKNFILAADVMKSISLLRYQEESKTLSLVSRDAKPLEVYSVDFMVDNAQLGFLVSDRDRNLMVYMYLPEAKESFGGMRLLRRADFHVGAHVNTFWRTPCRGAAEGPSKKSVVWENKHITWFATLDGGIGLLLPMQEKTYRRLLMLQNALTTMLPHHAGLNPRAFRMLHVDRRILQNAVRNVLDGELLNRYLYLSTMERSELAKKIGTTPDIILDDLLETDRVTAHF

B1: mouse cerebellum PIPKIIα (enzyme, UniProt O70172 2-405, looked up)
chain: ATPGNLGSSVLASKTKTKKKHFVAQKVKLFRASDPLLSVLMWGVNHSINELSHVQIPVMLMPDDFKAYSKIKVDNHLFNKENMPSHFKFKEYCPMVFRNLRERFGIDDQDFQNSLTRSAPLPNDSQARSGARFHTSYDKRYVIKTITSEDVAEMHNILKKYHQYIVECHGVTLLPQFLGMYRLNVDGVEIYVIVTRNVFSHRLSVYRKYDLKGSTVAREASDKEKAKELPTLKDNDFINEGQKIYIDDNNKKIFLEKLKKDVEFLAQLKLMDYSLLVGIHDVERAEQEEVECEENDGEEEGESDSTHPIGTPPDSPGNTLNSSPPLAPGEFDPNIDVYAIKCHENAPRKEVYFMAIIDILTHYDAKKKAAHAAKTVKHGAGAEISTVNPEQYSKRFLDFIGHIL
notes: Endogenous protein coprecipitated with an anti-IRBIT antibody
B2: mouse IRBIT (IP3 receptor-binding protein; IP3R-binding protein released with inositol 1,4,5-trisphosphate) (other)
chain: MSMPDAMPLPGVGEELKQAKEIEDAEKYSFMATVTKAPKKQIQFADDMQEFTKFPTKTGRRSLSRSISQSSTDSYSSAASYTDSSDDEVSPREKQQTNSKGSSNFCVKNIKQAEFGRREIEIAEQDMSALISLRKRAQGEKPLAGAKIVGCTHITAQTAVLIETLCALGAQCRWSACNIYSTQNEVAAALAEAGVAVFAWKGESEDDFWWCIDRCVNMDGWQANMILDDGGDLTHWVYKKYPNVFKKIRGIVEESVTGVHRLYQLSKAGKLCVPAMNVNDSVTKQKFDNLYCCRESILDGLKRTTDVMFGGKQVVVCGYGEVGKGCCAALKALGAIVYITEIDPICALQACMDGFRVVKLNEVIRQVDVVITCTGNKNVVTREHLDRMKNSCIVCNMGHSNTEIDVTSLRTPELTWERVRSQVDHVIWPDGKRVVLLAEGRLLNLSCSTVPTFVLSITATTQALALIELYNAPEGRYKQDVYLLPKKMDEYVASLHLPSFDAHLTELTDDQAKYLGLNKNGPFKPNYYRY
notes: also called Mouse-derived IRBIT

Assays:
[1] = molecular target: B2; assay: immunoprecipitation from mouse cerebellum with anti-IRBIT antibody
Procedure: (1) Mouse IRBIT and Myc-PIPKIIα, β, or γ were over-expressed in COS-7, followed by immunoprecipitation. Specifically, cells were solubilized with a lysis buffer (10 mM Hepes, 100 mM NaCl, 2 mM EDTA, 1% P-40, pH 7.4) and then centrifuged (20000×g, 30 minutes) to collect supernatants. Subsequently, an anti-Myc antibody or an anti-IRBIT antibody was added and then reaction was performed for 1 hour. Furthermore, protein G Sepharose® was added before one hour reaction, and the immune complex was washed with a lysis buffer and then eluted with a SDS-PAGE sample buffer. Subsequently, Western blotting was performed using an anti-Myc antibody or an anti-IRBIT antibody. As a result, IRBIT was coprecipitated with Myc-PIPKIIα, β, and γ (FIG. 4). (2) Immunoprecipitation was performed using an anti-IRBIT antibody and the mouse cerebellum, so that PIPKIIα was coprecipitated (FIG. 5). The in vivo binding of IRBIT with PIPKII was confirmed based on the results. (3) Mouse IRBIT and Myc-PIPKIIγ were overexpressed in COS-7 and then immunostaining was performed. Specifically, after fixation with 4% paraformaldehyde, transmembrane treatment with 0.1% Triton X-100 and blocking treatment with 2% goat serum were performed, a mouse anti-Myc antibody and a rabbit anti-IRBIT antibody were added, and then reaction was performed at room temperature for 1 hour. […]

[2] = molecular target: T1, myc-tagged CPSF160 subunit of mouse CPSF; assay: co-expression in COS cells, co-immunoprecipitation, detection with anti-IRBIT and anti-myc antibodies
Procedure: CPSF is a group of conjugated proteins consisting of 4 subunits: CPSF160, CPSF100, CPSF73, and CPSF30. First, to reveal to which one of the 4 subunits IRBIT binds, myc-tagged cDNAs prepared by tagging each subunit with myc were expressed together with IRBIT in various combinations by COS cells or the like and then the way in which coprecipitation occurs upon immunoprecipitation of IRBIT or CPSF was examined.
DNA was prepared by fusing DNA encoding an myc tag to cDNA encoding the full-length of or each subunit of CPSF. The thus prepared DNA was inserted into a vector for mammals. Meanwhile, cDNA encoding IRBIT was also inserted into the same vector. COS cells were transformed with the thus prepared vector and then the above DNA was co-expressed.
Cells were separated by centrifugation and then lysed. Cytoplasmic fractions were collected and then the binding of IRBIT to CPSF was detected using an anti-IRBIT antibody (JP2004-129612 A) and an anti-myc antibody.

Question: Does B1 bind [1]?
Answer: binds

Question: Does B2 bind [2]?
Answer: binds
